# Reference: patent publication US7575909B2, “Oxidoreductase from pichia capsulata” (IEP GmbH, priority 2003, dated 2009)
# B1: oxidoreductase from Pichia capsulata: NADH-dependent (S)-specific zinc-dependent carbonyl reductase from Pichia capsulata, amino acid sequence SEQ ID NO: 9, 341 amino acids (protein, listed as Pichia capsulata)
# chain: MSALSKTQAGYIFKKGAGHIVKAEVPIPKPTGAQSLLRVKAAGMCHSDLHVIGETLEVPTDGYVLGHEIAGELVEIGDSVNPEVFKVGGRYAVHGLNSCGSCEMCRTGHDNDCTGNESKWYGLGISGGYQQYLLVPNSHHLLPIPDNVSYEVAAATSDAVLTPYHAIKNSGVTPSSKVLMFGLGGLGSNALQILKAFGAYVVAVDVKPASKAIADEFKADEFYTDISQSSWKPASFDYCFDFVSLQVTFDICQKYIKSHGTIFPVGLGSSKLTFDLGNLALREVKIVGNFWGTSQEQIEAMELVSSGRVKPQVHTTELENLPESLEKLEEGKINGRLVMLP
# Tests used:
# [1] = Enzyme activity on expression of the oxidoreductase in E. coli; assay type: biochemical, Escherichia coli
# Description: Competent Escherichia coli StarBL21 (De3) cells (Invitrogen) were transformed with the expression construct pET21-PC#10 coding for the oxidoreductase according to the invention.
# (§1) The transformed strain was cultivated in an LB medium (1% tryptone, 0.5% yeast extract, 1% NaCl) with ampicillin (50 ig/ml) until an optical density, measured at 500 nm, of 0.5 was reached. The production of the recombinant oxidoreductase protein was initiated by adding isopropylthiogalactoside (IPTG) at a final concentration of 1 mM. The induction batch was incubated for another 15 h at 25° C. and 220 rpm.
# Competent Escherichia coli RB791 cells were transformed with the expression construct pQE30-PC#12 coding for the oxidoreductase according to the invention.
# as §1, with “adding IPTG” for “adding isopropylthiogalactoside (IPTG)”, “of 0.1” for “of 1”, “15 hours” for “15 h”, “rpm. The enzyme activity achieved amounted to approx. 1000 U/g of wet cell mass.” for “rpm.”
# [2] = Temperature stability of the oxidoreductase; assay type: physicochemical; conditions: after 30 min
# Description: The temperature stability was determined for the range of 15° C. to 70° C. in a manner analogous to that described under Example 5.2. […] Also in this case, the measured value obtained immediately after diluting the purified oxidoreductase in a potassium phosphate buffer 50 mM pH=7.0 was used as the initial value. Said value was set as a 100% value also in this example.
# [3] = Solvent stability of the oxidoreductase; assay type: physicochemical; conditions: RT
# Description: The enzyme stability of the oxidoreductase from P. capsulata was examined in the presence of organic solvents. For this purpose, the oxidoreductase was in each case diluted 1:20 with the indicated solvent mixtures (in case of water-miscible organic solvents) and was incubated at room temperature (20° C. to 24° C.; RT). Subsequently, 10 μl of the enzyme solution were used in the standard test batch. Also in this case, the initial value was equalled to 100% after dilution in the buffer (potassium phosphate buffer (KPP) 100 mM, pH=7.0), and all the other values were set in relation to said initial value.
# In case of water-immiscible organic solvents, the dilution likewise took place in a potassium phosphate buffer, the same volume of an organic solvent was added to the batch and the batch was incubated at RT in a thermomixer at 170 rpm. The activity was measured from the aqueous phase.
# [4] = Temperature optimum of the oxidoreductase; assay type: biochemical
# Description: In order to determine the optimum test temperature, the enzyme activity was measured in the standard measuring batch in a temperature range of 15° C. to 70° C.
# [5] = pH stability of the recombinant oxidoreductase; assay type: physicochemical; conditions: pH values above 9.0 and below 5.0
# Description: The determination of the activity of the recombinant oxidoreductase was examined by storage in the buffer systems mentioned in Table 3. For this purpose, the various buffers (50 mM) were prepared in a pH range of 4 to 11, and the oxidoreductase produced according to Example 4 was diluted therewith. After 30, 60 and 300 min of incubation, 10 μl were removed from the batch and used in the activity test according to Example 1.
# Thereby, the initial value is the measured value which was obtained immediately after diluting (1:20) the enzyme in the potassium phosphate buffer 50 mM pH=7.0. Under the given conditions, said value corresponded to an extinction variation of approx. 0.70/min and was set as a 100% value, and all the following measured values were set in relation to said value.
molecule,measurement,setting,value
B1,enzyme activity achieved,"[1]; E. coli RB791, construct pQE30-PC#12, 0.1 mM IPTG",approx. 1000 U/g of wet cell mass
same,enzyme activity achieved,"[1]; E. coli StarBL21 (De3), construct pET21-PC#10, 1 mM IPTG",approx. 6000 U/g of wet cell mass
same,enzyme activity after incubation at 55° C.,[2],can no longer be detected
same,Activity,"[3]; 5% EtOH, 8 h",77%
same,Activity,"[3]; 5% EtOH, 24 h",77%
same,Activity,"[3]; 5% isopropanol, 8 h",77%
same,Activity,"[3]; 5% isopropanol, 24 h",77%
same,Activity,"[3]; 10% DSMO, 8 h",42%
same,Activity,"[3]; 10% DSMO, 24 h",45%
same,Activity,"[3]; 10% EtOH, 8 h",77%
same,Activity,"[3]; 10% EtOH, 24 h",77%
same,Activity,"[3]; 10% isopropanol, 8 h",72%
same,Activity,"[3]; 10% isopropanol, 24 h",72%
same,Activity,"[3]; 20% DSMO, 8 h",30%
same,Activity,"[3]; 20% DSMO, 24 h",30%
same,Activity,"[3]; 20% EtOH, 8 h",100%
same,Activity,"[3]; 20% EtOH, 24 h",100%
same,Activity,"[3]; 20% isopropanol, 8 h",46%
same,Activity,"[3]; 20% isopropanol, 24 h",46%
same,Activity,"[3]; 30% EtOH, 8 h",64%
same,Activity,"[3]; 30% EtOH, 24 h",64%
same,Activity,"[3]; 30% isopropanol, 8 h",18%
same,Activity,"[3]; 30% isopropanol, 24 h",18%
same,Activity,"[3]; Buffer KPP 100 mM pH = 7, 1 mM MgCl2, 8 h",100%
same,Activity,"[3]; Buffer KPP 100 mM pH = 7, 1 mM MgCl2, 24 h",100%
same,Activity,"[3]; butyl acetate (same volume, two-phase), 8 h",53%
same,Activity,"[3]; butyl acetate (same volume, two-phase), 24 h",28%
same,Activity,"[3]; chloroform (same volume, two-phase), 8 h",51%
same,Activity,"[3]; chloroform (same volume, two-phase), 24 h",0%
same,Activity,"[3]; cyclohexane (same volume, two-phase), 8 h",85%
same,Activity,"[3]; cyclohexane (same volume, two-phase), 24 h",70%
same,Activity,"[3]; diethyl ether (same volume, two-phase), 8 h",100%
same,Activity,"[3]; diethyl ether (same volume, two-phase), 24 h",100%
same,Activity,"[3]; diisopropyl ether (same volume, two-phase), 8 h",100%
same,Activity,"[3]; diisopropyl ether (same volume, two-phase), 24 h",100%
same,Activity,"[3]; ethyl acetate (same volume, two-phase), 8 h",2%
same,Activity,"[3]; ethyl acetate (same volume, two-phase), 24 h",0%
same,Activity,"[3]; heptane (same volume, two-phase), 8 h",74%
same,Activity,"[3]; heptane (same volume, two-phase), 24 h",43%
same,Activity,"[3]; hexane (same volume, two-phase), 8 h",60%
same,Activity,"[3]; hexane (same volume, two-phase), 24 h",20%
same,Activity,"[3]; methyl tert-butyl ether (same volume, two-phase), 8 h",100%
same,Activity,"[3]; methyl tert-butyl ether (same volume, two-phase), 24 h",100%
same,Activity in U/ml undiluted enzyme,[4]; 15 ° C.,73 U/ml
same,Activity in U/ml undiluted enzyme,[4]; 20 ° C.,83 U/ml
same,Activity in U/ml undiluted enzyme,[4]; 25 ° C.,128 U/ml
same,Activity in U/ml undiluted enzyme,[4]; 30 ° C.,135 U/ml
same,Activity in U/ml undiluted enzyme,[4]; 35 ° C.,163 U/ml
same,Activity in U/ml undiluted enzyme,[4]; 40 ° C.,170 U/ml
same,Activity in U/ml undiluted enzyme,[4]; 45 ° C.,176 U/ml
same,Activity in U/ml undiluted enzyme,[4]; 50 ° C.,122 U/ml
same,Activity in U/ml undiluted enzyme,[4]; 55 ° C.,45 U/ml
same,Activity in U/ml undiluted enzyme,[4]; 60 ° C.,0 U/ml
same,Activity in U/ml undiluted enzyme,[4]; 65 ° C.,0 U/ml
same,Activity in U/ml undiluted enzyme,[4]; 70 ° C.,0 U/ml
same,optimum temperature (maximum activity),"[4]; standard measuring batch, 15° C. to 70° C., listed as recombinant oxidoreductase from P. capsulata",45 °C
same,effect of incubation at extreme pH,[5],immediate deactivation
